In the RNAGym collection of RNA variant scans (doi:10.1073/pnas.2313332121):

B1: TPR t1 (parent)
chain: GACCAAUCUGCCCUCAGAGCUCGAGAACAUCUUCGGAUGCAGAGGAGGCAGGCUUCGGUGGCGCGAUAGCGCCAACGUCCUCAACCUCCAAUGCAUCCCACCACAUGAUGAUGCCUGAAGAGCCUUGGUUUUUUG

Variants of: B1
Assay: polymerase ribozyme fitness, log enrichment relative to wild type (log ratio); higher = more active; in vitro selection for triplet polymerase activity
Summary of the method: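 Mutant libraries of each subunit of a heterodimeric triplet polymerase ribozyme were built by PCR and transcribed. Each library went through one round of in vitro selection in triplicate: annealing with biotinylated primer, partner subunit and triplets, frozen incubation at −7 °C, gel excision of extended constructs, streptavidin-bead capture and RT-PCR. Input and output libraries were Illumina-sequenced; only genotypes with ≥10 input reads and ≥1 read per output were kept. Fitness is log2(genotype enrichment/wild-type enrichment), using inverse-variance-weighted replicate averages.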

| Variant | polymerase ribozyme fitness (log ratio) |
| --- | --- |
| A18G G57U | -3.92 |
| A18G C82A C94U | -4.18 |
| A18U A43G G60A U92C U112C | -0.561 |
| A18G G19U A46G U59A C79A | -4.25 |
| A18C G71C A121C C123U C124U | -3.96 |
| A18G U106A U109C | -3.8 |
| A18U A37C C82G U92C U116A A121G | -5.42 |
| A18G C56G G58C C114A | -3.34 |
| A18G C20U G93U U109A C115A | -5.78 |
| A18C G52A G61A A118G | -2.74 |
| A18C G61C | -2.87 |
| A18U C28A C85G A111U | -4.7 |
| A18C G71A C88U G93C | -4.58 |
| A18G C20U A29U U32G C53A C97U | -2.71 |
| A18U A83U C101A | -3.63 |
| A18U C49G C88A C101A C123U U126A | -4.99 |
| A18G G122A | -3.35 |
| A18U C40A G120U C123A U129C | -4.63 |
| A18C U116A | -3.4 |
| A18C U106A | -3.06 |
| A18G C49A C79U G120C G128U | -5.04 |
| A18U C20G | -4.36 |
| A18G A68U U87G U109A | -5.24 |
| A18C U112G | -3 |

| Variant | polymerase ribozyme fitness (log ratio) |
| --- | --- |
| A18G G69U U81C G107U | -3.65 |
| A18G G107A | -3.37 |
| A18G C20U A95C | -1.56 |
| A18C U78C | -1.87 |
| A18U C56U | -1.72 |
| A18C G52A C72U | -2.39 |
| A18C G61A C85G | -3.25 |
| A18C G35U A103U C115U | -4.68 |
| A18G C101U C114U U129A | -5.75 |
| A18G C40U C53U A83U G93C | -5.03 |
| A18U A83C C94G C115G C123G U134G | -1.77 |
| A18G C72A | -2.98 |
| A18U C28U G36U C70U C79G G120A C124A | -6.76 |
| A18G U129A | -4.53 |
| A18U A66U | -3.87 |
| A18C C101A | -3.03 |
| A18G G19U C49U C85U G110C U112G | -5.77 |
| A18G U78C G117U C123A C124G | -1.41 |
| A18G U112A | -0.0704 |
| A18G C49A U92A C123A | -4.5 |
| A18G G42A G63U G113A U132A | -3.41 |
| A18G C22G A27U G117C | -4.21 |
| A18U C40U C94U | -3.46 |
| A18U A111C | -2.74 |

| Variant | polymerase ribozyme fitness (log ratio) |
| --- | --- |
| A18C C72G U78C C104A C114G | -3.63 |
| A18C G69C | -4.31 |
| A18U A41U | -2.88 |
| A18C C72G C89G C114A U130A | -4.03 |
| A18U A43G | -1.5 |
| A18G G63C | -2.89 |
| A18C U55G | -1.99 |
| A18C U55C | -3.52 |
| A18U A90C G120A | -0.842 |
| A18U C40A A41U | -3.61 |
| A18G C20U G39A A43G C49A A66U U78G | -6.02 |
| A18C U21A C72G G93C | -4.4 |
| A18U C53A | -2.38 |
| A18U A29G A43U G52A G60A C88U C94U | -5.06 |
| A18C G69C U133A | -4.77 |
| A18U A37U U78G A84U U87A | -4.45 |
| A18G C56G A83U G110C | -4.59 |
| A18C G113C | -3.55 |
| A18U A83U G120A | -2.42 |
| A18C G19A C85U G120A | -3.39 |
| A18C G127C | -3.02 |
| A18C C89G U106A | -2.89 |
| A18G C70A | -4.01 |
| A18G C64G C98U G117C | -5.51 |

| Variant | polymerase ribozyme fitness (log ratio) |
| --- | --- |
| A18G G48U C72A U130G | -6.5 |
| A18G A43C C53A G63U | -5.8 |
| A18U A41U C56U C72A U133A | -3.75 |
| A18C G48U C56U A84G | -4.19 |
| A18U A50C C70A G71A C123U | -6.84 |
| A18C C89G | -2.48 |
| A18G C72U U81A A91U U96C G120A G128A | -6.28 |
| A18U C53U C124G | -0.337 |
| A18G G19A A43C C56U C70U G110A | -4.41 |
| A18C G36C G57U | -4.25 |
| A18G G36U C56G | -6.14 |
| A18C C64U | -2.61 |
| A18U C28U | -5.29 |
| A18G C34G C70A U109A G128A | -5.92 |
| A18U A46U G61U A90C C115G | -2.56 |
| A18U A66G U78C A118G U132A | -3.83 |
| A18C G61C C89G U116C C124A | -2.98 |
| A18G A105G U112C G117C U132A | -3.97 |
| A18U C22U A43G G60A | -6.88 |
| A18U C40U G113A G117A | -6 |
| A18G G48U | -2.96 |
| A18C U92C G117A G120U U129A | -5.88 |
| A18G C102G G110U | -5.75 |
| A18C G48U G57U | -2.85 |

| Variant | polymerase ribozyme fitness (log ratio) |
| --- | --- |
| A18G C62U | -2.68 |
| A18G U21C G110A | -2.38 |
| A18U A37U A41G C64U | -2.4 |
| A18U A46C G52A | -4.31 |
| A18C U55A G57C C70G C124A | -6.54 |
| A18G C62U C86G | -4.96 |
| A18U C22G A66U U78C C82U | -6.51 |
| A18C U54G C123G | -0.39 |
| A18U A91G | -1.85 |
| A18G G113A | -1.78 |
| A18G G113U | -4.5 |
| A18C G71A | -4.91 |
| A18G A43U G71A | -4.88 |
| A18C C124G G128U | -3.83 |
| A18U A26G C40G A43U C97A U112A | -6.73 |
| A18G U54A C62U C88G A111C G113C U125A | -3.53 |
| A18G G69U C102U C115A | -5.41 |
| A18U C49G | -3.54 |
| A18U C49A | -2.29 |
| A18C U59A C89U G122A | -3.38 |
| A18C G42C G47A | -2.35 |
| A18C G48A | -2.74 |
| A18U A41C C72G | -2.61 |
| A18G A118G | -3.1 |

| Variant | polymerase ribozyme fitness (log ratio) |
| --- | --- |
| A18G C31A C62U U112A C115U G122U | -5.9 |
| A18C G19A G71U C104U C115A | -0.527 |
| A18C U54G U87G A121U | -0.603 |
| A18G A37G A66U C94U G113C G117A | -4.01 |
| A18G C114U | -3.96 |
| A18C C56U | -2.56 |
| A18C G42U A46G G47A C86U | -2 |
| A18G C73A U87G | -3.89 |
| A18U A74U U78C A111C | -4.61 |
| A18C C101A C123U G127A | -4.43 |
| A18G A27G | -4.94 |
| A18C C73G C114U | -3.9 |
| A18U C49U C102U G117A | -7.34 |
| A18G G19A A43C C56U G110A | -2.58 |
| A18G C20G C31A G60C C99A G110U | -1.91 |
| A18G G93C | -3.75 |
| A18U A50U | -4.84 |
| A18U C20G A50U C72G G113A | -4.8 |
| A18U C22U A37U A118U | -5.28 |
| A18G G63C C85U G110U | -3.81 |
| A18C G47U | -4.12 |
| A18C U125G | -3.63 |
| A18U A121C | -0.0692 |
| A18G C56U | -2.25 |

| Variant | polymerase ribozyme fitness (log ratio) |
| --- | --- |
| A18U C40A | -3.76 |
| A18G C82A | -4.16 |
| A18G G61C C114U | -5.18 |
| A18G G44U C86A C104U G120C | -3.98 |
| A18G G113U G128U U132A | -5.64 |
| A18G G60U U96G A108U | -7.14 |
| A18C G60A C89G U106A | -3.6 |
| A18C C56G C124A | -0.202 |
| A18C U87C | -2.11 |
| A18G C49U G107A | -5.11 |
| A18C G69U C115U | -1.28 |
| A18C U131A | -2.1 |
| A18U A26G G71U G120A G127U | -5.55 |
| A18G A43C U54A | -4.06 |
| A18C G77C | -2.76 |
| A18C C73A | -2.69 |
| A18C C73U | -2.53 |
| A18U A95G | -2.21 |
| A18G G69U | -1.47 |
| A18U C40U C72U U78G C123G G135C | -1.48 |
| A18C U38A C115A U116G C123U U126A | -4.52 |
| A18C C89G C114A U130A | -3.2 |
| A18C G61C U112G | -6.42 |
